From the supplement of paper PMC9233669
Variants at the floor of the assay were thinned out.

What was measured:
biotinyl-Phe-oxazolone = experiment: self-aminoacylation, catalytic enhancement (BFO) (fold over background); higher = more active; k-Seq, kA / k0A0; sequences stand for … in GGGAAUGGAUCCACAUCUACGAAUUC…UUCACUGCAGACUUGACGAAGCUG
Summary of the method: (§1)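 Mutagenized RNA pools with a 21-nt variable region (0.43 μM) reacted with each biotinyl-aminoacyl-oxazolone at 2–1250 μM. Reactions ran in 50 μL HEPES/NaCl/KCl/MgCl2/CaCl2 buffer with 5% acetonitrile, pH 6.9–7.0, for 90 minutes at room temperature. Streptavidin-captured RNA was quantified by triplicate qPCR and Illumina sequencing, and per-sequence fraction reacted was fit to a pseudo-first-order model with 1000 bootstraps. Catalytic enhancement is median kA divided by the uncatalyzed rate, the low-activity peak of a bimodal Gaussian fit.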

biotinyl-Ile-oxazolone = experiment: self-aminoacylation, catalytic enhancement (BIO) (fold over background); higher = more active; k-Seq, kA / k0A0; sequences stand for … in GGGAAUGGAUCCACAUCUACGAAUUC…UUCACUGCAGACUUGACGAAGCUG
Summary of the method: as §1

biotinyl-Val-oxazolone = experiment: self-aminoacylation, catalytic enhancement (BVO) (fold over background); higher = more active; k-Seq, kA / k0A0; sequences stand for … in GGGAAUGGAUCCACAUCUACGAAUUC…UUCACUGCAGACUUGACGAAGCUG
Summary of the method: as §1

biotinyl-Leu-oxazolone = experiment: self-aminoacylation, catalytic enhancement (BLO) (fold over background); higher = more active; k-Seq, kA / k0A0; sequences stand for … in GGGAAUGGAUCCACAUCUACGAAUUC…UUCACUGCAGACUUGACGAAGCUG
Summary of the method: as §1

biotinyl-Met-oxazolone = experiment: self-aminoacylation, catalytic enhancement (BMO) (fold over background); higher = more active; k-Seq, kA / k0A0; sequences stand for … in GGGAAUGGAUCCACAUCUACGAAUUC…UUCACUGCAGACUUGACGAAGCUG
Summary of the method: as §1

biotinyl-Trp-oxazolone = experiment: self-aminoacylation, catalytic enhancement (BWO) (fold over background); higher = more active; k-Seq, kA / k0A0; sequences stand for … in GGGAAUGGAUCCACAUCUACGAAUUC…UUCACUGCAGACUUGACGAAGCUG
Summary of the method: as §1

| Sequence | self-aminoacylation (biotinyl-Phe-oxazolone) | self-aminoacylation (biotinyl-Ile-oxazolone) | self-aminoacylation (biotinyl-Val-oxazolone) | self-aminoacylation (biotinyl-Leu-oxazolone) | self-aminoacylation (biotinyl-Met-oxazolone) | self-aminoacylation (biotinyl-Trp-oxazolone) |
| --- | --- | --- | --- | --- | --- | --- |
| AUUCACGUAGGUCAUUGGGUG [Fam2.2 aminoacylation ribozyme variant] | 25.2 | 3.18 | 4 | 5.11 | 4.43 | 4 |
| CCACACGCCAAGCAAUCGGUC [Fam1B.1 aminoacylation ribozyme variant] | 0.829 | 0.961 | 1.23 | 0.862 | 1.29 | 0.555 |
| AUUCAACUAGGUCAUCGGGAG [Fam2.2 aminoacylation ribozyme variant] | 0.48 | 0.943 | 0.961 | 0.899 | 1.23 | 1.05 |
| CCACGCUUCAAGCAAUCCGUC [Fam1B.1 aminoacylation ribozyme variant] | 1.34 | 0.754 | 1.1 | 0.648 | 0.507 | 1.07 |
| AUUGCCGUGGUCAUCGAGUGA [Fam2.1 aminoacylation ribozyme variant] | 33.7 | 2.89 | 3.45 | 6.18 | 4.92 | 5.71 |
| CCACACAUCAAGCAAUAGGUC [Fam1B.1 aminoacylation ribozyme variant] | 1.52 | 0.864 | 1.02 | 0.574 | 0.698 | 0.736 |
| AUUACCCUGGGCAUCGGGUGA [Fam2.1 aminoacylation ribozyme variant] | 65.7 | 5.62 | 6.68 | 11.5 | 10.4 | 10.8 |
| AUUCACCUAGGUGAUCGGGUU [Fam2.2 aminoacylation ribozyme variant] | 9.06 | 1.85 | 1.88 | 2.59 | 1.89 | 1.06 |
| GUUCACCUAGGUCACCGGGUG [Fam2.2 aminoacylation ribozyme variant] | 28.5 | 4.06 | 3.55 | 5.53 | 3.6 | 6.73 |
| AUUACCAUGGUCAUCGAGUAA [Fam2.1 aminoacylation ribozyme variant] | 1.09 | 1.41 | 1.42 | 1.33 | 1.7 | 1.28 |
| AUUACCCUGGUAAUCGAGUGG [Fam2.1 aminoacylation ribozyme variant] | 2.83 | 1.38 | 1.31 | 2.79 | 2.85 | 2.9 |
| AUUAAGCUGGUCAUCGAGUGA [Fam2.1 aminoacylation ribozyme variant] | 4.33 | 2.77 | 2.36 | 3.05 | 3.07 | 3.85 |
| AUUCACCUACGGCAUCGGGUG [Fam2.2 aminoacylation ribozyme variant] | 22.2 | 2.29 | 2.7 | 3.86 | 2.91 | 3.22 |
| CCACGCUACAAGCAAUCGGUC [Fam1B.1 aminoacylation ribozyme variant] | 1.3 | 0.937 | 0.999 | 0.851 | 0.858 | 1.2 |
| AUUCACCUAAGUCGUCGGGUG [Fam2.2 aminoacylation ribozyme variant] | 10.1 | 1.88 | 1.87 | 2.55 | 2.18 | 2.02 |
| CUACUUCAAACAAACGAUCUG [Fam1A.1 aminoacylation ribozyme variant] | 0.828 | 0.693 | 0.779 | 0.569 | 0.728 | 0.336 |
| AUUACCCUGGUCAUCGAGCGG [Fam2.1 aminoacylation ribozyme variant] | 1.12 | 1.95 | 1.8 | 2.9 | 2.38 | 1.61 |
| AAUCACCUAGGUCAUCGGGUA [Fam2.2 aminoacylation ribozyme variant] | 52.7 | 7.76 | 7.24 | 14.7 | 12 | 10.5 |
| AAGUUUACUAAUAGUCGCGAG [Fam3.1 aminoacylation ribozyme variant] | 2.41 | 1.83 | 1.22 | 1.91 | 1.59 | 1.54 |
| AAGUCUGCUAGUAGUCGCAAG [Fam3.1 aminoacylation ribozyme variant] | 1.06 | 0.775 | 1.06 | 1.44 | 0.975 | 0.88 |
| CUGCUUCAAACAAUCGCUCUG [Fam1A.1 aminoacylation ribozyme variant] | 4.43 | 0.876 | 0.888 | 0.984 | 0.937 | 3.14 |
| CUACUUCAAAUAAUCGGCCUG [Fam1A.1 aminoacylation ribozyme variant] | 14.5 | 1.11 | 0.985 | 1.36 | 0.902 | 12 |
| AAGUUUGCUUAUAGUCGCCAG [Fam3.1 aminoacylation ribozyme variant] | 0.665 | 1.08 | 0.955 | 0.933 | 0.883 | 1.08 |
| AUUCACCAAGGGCAUCGGGUG [Fam2.2 aminoacylation ribozyme variant] | 35.1 | 4.37 | 5.01 | 6.01 | 5.2 | 4.74 |
| AUUAACCUGGUCAUCGAAUGA [Fam2.1 aminoacylation ribozyme variant] | 0.933 | 1.07 | 1.07 | 1.09 | 0.959 | 0.742 |
| AUUACCCUGGUCAGCGAAUGA [Fam2.1 aminoacylation ribozyme variant] | 0.631 | 1.05 | 1.31 | 1.22 | 1.43 | 1.38 |

| Sequence | self-aminoacylation (biotinyl-Phe-oxazolone) | self-aminoacylation (biotinyl-Ile-oxazolone) | self-aminoacylation (biotinyl-Val-oxazolone) | self-aminoacylation (biotinyl-Leu-oxazolone) | self-aminoacylation (biotinyl-Met-oxazolone) | self-aminoacylation (biotinyl-Trp-oxazolone) |
| --- | --- | --- | --- | --- | --- | --- |
| AUUACAAUGGUCAUCGAGUGA [Fam2.1 aminoacylation ribozyme variant] | 16.6 | 3.7 | 3.54 | 6.42 | 6.47 | 7.87 |
| AUGCACCUAGGUUAUCGGGUG [Fam2.2 aminoacylation ribozyme variant] | 32.7 | 3.4 | 3.11 | 4.46 | 3.37 | 4.81 |
| UUUACCCUGGUCAUCGAGUGG [Fam2.1 aminoacylation ribozyme variant] | 154 | 8.85 | 9.95 | 27.3 | 31.5 | 29.3 |
| AAGUUGGCUAAUAGUUGCAAG [Fam3.1 aminoacylation ribozyme variant] | 1.86 | 1.39 | 1.29 | 1.09 | 1.53 | 1.92 |
| AUUACCAUAGUCAUCGAGUGA [Fam2.1 aminoacylation ribozyme variant] | 43.4 | 4.32 | 3.89 | 7.53 | 7.07 | 9.11 |
| CUACUUCAAAUAAUCAGUCUG [Fam1A.1 aminoacylation ribozyme variant] | 8.19 | 0.956 | 0.935 | 0.891 | 0.717 | 3.71 |
| CUACAUCAAACAAUCCGUCUG [Fam1A.1 aminoacylation ribozyme variant] | 0.983 | 0.905 | 0.877 | 0.755 | 0.759 | 0.615 |
| GGUACCCUGGUCAUCGAGUGA [Fam2.1 aminoacylation ribozyme variant] | 38.7 | 6.93 | 6.65 | 12.6 | 11.2 | 16.4 |
| AUUCAACUAGGUCAUCUGGUG [Fam2.2 aminoacylation ribozyme variant] | 17.7 | 1.9 | 1.85 | 3.55 | 2.55 | 2.54 |
| AUUGACCUAAGUCAUCGGGUG [Fam2.2 aminoacylation ribozyme variant] | 56.8 | 5.64 | 5.26 | 12.1 | 7.6 | 9.4 |
| AAGUUUGCUACUAGUCGCAAG [Fam3.1 aminoacylation ribozyme variant] | 1.13 | 0.824 | 0.838 | 0.766 | 0.802 | 0.775 |
| AUCCACCUAGAUCAUCGGGUG [Fam2.2 aminoacylation ribozyme variant] | 23.2 | 3.37 | 3.26 | 4.88 | 3.25 | 4.45 |
| AUUACCUUGGUCAUCGAGAGA [Fam2.1 aminoacylation ribozyme variant] | 0.809 | 0.924 | 1.19 | 0.907 | 0.957 | 0.946 |
| AAGUGUGCUGAUAGUCGCAAG [Fam3.1 aminoacylation ribozyme variant] | 2.85 | 1.53 | 1.24 | 1.42 | 1.74 | 1.38 |
| CCACACUUCAACCAAUCGGUA [Fam1B.1 aminoacylation ribozyme variant] | 1.08 | 1.1 | 1.1 | 0.859 | 1.56 | 1.63 |
| AGGUUUGCUAAUAGCCGCAAG [Fam3.1 aminoacylation ribozyme variant] | 4.78 | 1.2 | 0.935 | 1.11 | 1.15 | 2.25 |
| AUUCACCUAUGUCAUCGGGGG [Fam2.2 aminoacylation ribozyme variant] | 6.23 | 1.5 | 1.38 | 1.93 | 2 | 1.58 |
| AAGUUUGCUAAUAGUCGCGAG [Fam3.1 aminoacylation ribozyme variant] | 2.01 | 1.33 | 1.2 | 1.29 | 1.33 | 2 |
| CCACACUUCAAUCAAUCUGUC [Fam1B.1 aminoacylation ribozyme variant] | 0.748 | 0.425 | 0.58 | 0.343 | 0.429 | 0.342 |
| AAGAUUGCUAAUAGUCGGAAG [Fam3.1 aminoacylation ribozyme variant] | 1.84 | 1.4 | 1.22 | 0.837 | 0.909 | 1.54 |
| CUACUUCACACGAUCGGUCUG [Fam1A.1 aminoacylation ribozyme variant] | 0.678 | 0.913 | 0.777 | 0.853 | 0.97 | 0.654 |
| AUUACCUUGAUCAUCGAGUGA [Fam2.1 aminoacylation ribozyme variant] | 37.6 | 3.94 | 4.44 | 8.21 | 8.63 | 10.7 |
| AUUCCCCUGGUGAUCGAGUGA [Fam2.1 aminoacylation ribozyme variant] | 36.9 | 3.12 | 3.13 | 5.91 | 5.51 | 6.06 |
| CUACCUCAACCAAUCGGUCUG [Fam1A.1 aminoacylation ribozyme variant] | 1.08 | 0.766 | 0.891 | 0.671 | 0.811 | 0.886 |
| AUUCACCAAGGUCAGCGGGUG [Fam2.2 aminoacylation ribozyme variant] | 29.3 | 4.01 | 3.95 | 5.4 | 4.83 | 4.65 |
